Among the data in patent US20160075733A1 are Kd values, retold here.

This test deals with low density lipoprotein receptor (LDLR) expressed on HEK293 cells transfected with LDLR modified mRNA (mRNA SEQ ID NO: 21463) (human) (UniProt P01130). As to the kind of experiment: Flow cytometry (FACS): increasing amounts of BODIPY-LDL on HEK293 cells transfected with LDLR mRNA, 1.0 h at 37 C. Background: A flow cytometer gives signals particle by particle.
low density lipoprotein receptor (LDLR) expressed on HEK293 cells transfected with LDLR modified mRNA (mRNA SEQ ID NO: 21463) (human), sequence (P01130 22-860): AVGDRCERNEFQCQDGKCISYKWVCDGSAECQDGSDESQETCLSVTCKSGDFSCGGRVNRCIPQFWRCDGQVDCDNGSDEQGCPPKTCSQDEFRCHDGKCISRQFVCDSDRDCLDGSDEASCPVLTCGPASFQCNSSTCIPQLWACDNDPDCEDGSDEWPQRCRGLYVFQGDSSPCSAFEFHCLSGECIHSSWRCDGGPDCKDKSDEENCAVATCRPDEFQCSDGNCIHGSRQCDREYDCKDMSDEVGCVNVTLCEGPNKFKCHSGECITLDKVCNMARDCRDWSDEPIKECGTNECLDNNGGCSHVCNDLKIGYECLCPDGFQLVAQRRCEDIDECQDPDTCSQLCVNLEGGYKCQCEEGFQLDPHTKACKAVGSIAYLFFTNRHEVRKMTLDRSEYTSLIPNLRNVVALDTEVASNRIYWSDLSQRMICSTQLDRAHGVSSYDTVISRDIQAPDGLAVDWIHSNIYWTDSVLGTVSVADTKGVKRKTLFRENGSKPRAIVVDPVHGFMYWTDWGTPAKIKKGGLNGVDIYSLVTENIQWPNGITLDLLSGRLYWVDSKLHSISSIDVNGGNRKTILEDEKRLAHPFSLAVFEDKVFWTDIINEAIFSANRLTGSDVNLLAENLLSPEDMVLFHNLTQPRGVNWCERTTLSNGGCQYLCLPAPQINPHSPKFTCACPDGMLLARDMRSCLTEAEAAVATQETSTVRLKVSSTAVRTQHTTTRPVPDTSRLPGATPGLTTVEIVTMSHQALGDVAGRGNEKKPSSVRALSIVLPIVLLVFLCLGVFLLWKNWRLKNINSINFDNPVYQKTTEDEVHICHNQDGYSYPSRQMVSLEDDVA

For orientation: Kd means the constant that tells how readily two partners part at equilibrium. As to “BODIPY-labeled LDL (low density lipoprotein) (from UniProt P04114 28-4563) (ligand)”, the Kd was 0.06 µg/mL.
